According to article PMC5070160, “Efficient biosynthesis of ethyl (R)-4-chloro-3-hydroxybutyrate using a stereoselective carbonyl reductase from Burkholderia gladioli” (BMC Biotechnology, 2016):

Assays:
[1] = substrate: NC(=O)C1=CN([C@@H]2O[C@H](COP(=O)(O)OP(=O)(O)OC[C@H]3O[C@@H](n4cnc5c(N)ncnc54)[C@H](OP(=O)(O)O)[C@@H]3O)[C@@H](O)[C@H]2O)C=CC1; test: purified protein; format: biochemical, Burkholderia gladioli; settings: apparent, COBE (ethyl 4-chloro-3-oxobutanoate) 50 mM, NADPH 0.01-0.5 mM, pH 6.5, 40 °C, varied: cofactor
[2] = substrate: NC(=O)C1=CN([C@@H]2O[C@H](COP(=O)(O)OP(=O)(O)OC[C@H]3O[C@@H](n4cnc5c(N)ncnc54)[C@H](O)[C@@H]3O)[C@@H](O)[C@H]2O)C=CC1; test: purified protein; format: biochemical, Burkholderia gladioli; settings: apparent, COBE (ethyl 4-chloro-3-oxobutanoate) 50 mM, NADH 0.01-0.5 mM, pH 6.5, 40 °C, varied: cofactor

B1: BgADH3 (Burkholderia gladioli BSR3) (protein)
chain: MSETNSRRDFLRHAAAGTAGVAVAAVPGIAAAADGAPDAMPPLARMRNPHDLYPRAPFARQVQPVPGLASKMVPRPDHGETSYRGSNRLAGRKALVTGGDSGIGRAAAIAFAREGADVAINYLPVEESDAREVVALIRKEGRKCVAIPGDIRTEAFCRQLVERAVAELGGLDVLVSNAGHQQARDDIQDISSEQFEQTMKTNVYAPFWIAKAALPHMPAGSSVILTTSEQAFLPSANLLDYAPTKAANIAFVKALAKQQAPRGIRVNAVAPGATWTPLQTSGGQPPEVIDRFGQDNPTGRPAQPVELAPLYVTLASAESSFSSGQVFGANGATGAA
- Km [1]: 81 µM
- Vmax [1]: 9.1 µmol/min/mg
- kcat [1]: 10.6 s⁻¹
- kcat/Km [1]: 131000 M⁻¹ s⁻¹
- Km [2]: 58 µM
- Vmax [2]: 3.4 µmol/min/mg
- kcat [2]: 3.97 s⁻¹
- kcat/Km [2]: 68300 M⁻¹ s⁻¹
